These results are taken from article PMC9092470, “Understanding p300-transcription factor interactions using sequence variation and hybridization†” (RSC Chemical Biology, 2022).

The term Kd denotes the concentration at which binding is half-saturated. Low values mean a tighter complex, high ones a looser complex.

In assay [1] the target is T1, p300 (CH1 domain, residues 330–420) (Homo sapiens, UniProt Q09472).
T1 construct: GST (N, cleaved yes); made in house; host or cells: E. coli BL21 pLysS (pGEX-4T1-p300)
The assay can be described thus: ITC of GFP-HIF-1α776–826 variants binding to p300. The conditions noted are these: 37 °C, 25 mM Tris–HCl, 150 mM NaCl, 1 mM DTT, pH 7.4, 10 μM p300 in cell, 100 μM variant in syringe; for ΔH: 68% confidence interval in brackets. The procedure: (§1) Fig. 2 Biophysical analyses on the effects of HIF-1α sequence variant p300 binding affinity. (a) schematic depicting the equilibrium for interaction of GFP-HIF-1α776–826 variants and GST-p300 as studied by fluorescence anisotropy; (b) representative fluorescence anisotropy titration data for sAV and mAV GFP-HIF-1α776–826 peptides interacting with GST-p300 (25 mM Tris–HCl, 150 mM NaCl, 1 mM DTT, pH 7.4), error bars represent standard deviation of technical triplicates; (c) raw ITC data (upper) and fitted thermogram (lower) for the interaction of GFP-HIF-1α776–826 peptides with p300 (37 °C in 25 mM Tris–HCl, 150 mM NaCl, 1 mM DTT, pH 7.4) using 10 μM p300 in the cell and 100 μM GFP-HIF-1α776–826 variant in the syringe; error bars represent estimated integration errors (d) thermodynamic signatures for each interaction. […]
Error bars represent standard deviation of technical triplicates.
Figure S5 Heat of dilution of (a) GFP titrated to buffer, (b) GFP titrated to p300 and (c) Raw ITC (upper) data and fitted thermogram (lower) for the interaction of GFP-HIF-1α776-826 D823A variant (37 °C in 25 mM Tris-HCl, 150 mM NaCl, 1mM DTT, pH 7.4) using 10 µM p300 in the cell and 100 µM HIF-1α variant in the syringe. ITC experiments were carried out using a Microcal ITC200i instrument (Malvern). All proteins were dialysed against the same buffer prior to experiment, buffer or 10 µM p300 was present in the cell and titrated with 100 µM GFP-HIF-1α or GFP loaded into the syringe using 16 x 2 μL injections with 120 s spacing between the injections. Heats of GFP or GFP-HIF-1α dilution were subtracted from the measurement raw data. Error bars represent the estimated integration errors. […]
Isothermal titration calorimetry
Prior to ITC measurement p300 CH1 was dialysed or run on S75 column in the buffer used for titration, and the same buffer was used to dissolve the pure peptides. Experiments with […]
MicroCal iTC200 instrument with 10 µM protein in the cell and 100 µM ligand in the syringe at 37°C, using 2 µl injections and 120 or 180 s spacing between injections. Experiments with the […]
instrument using 3-5 µM protein in the cell and 40-60 µM ligand in the syringe at 35°C, using 5 µl injections and 180 s spacing between injections, for 40 injections. Titrations were performed in 40 mM Na-phosphate, pH 7.5 100 mM NaCl, 1 mM DTT buffer except for GFP-HIF-1α and variants for which 25 mM Tris-HCl, 150 mM NaCl, 1mM DTT, pH 7.4 buffer was used. Data were analysed using NITPIC3 and fitted using SEDPHAT4 to a single binding site model (fixed 1:1 stoichiometry), with baseline and incompetent protein fraction as adjustable parameters. 68 % confidence intervals for the fitted values were determined using the automatic confidence interval search implemented in SEDPHAT. Figures were prepared using […]

For assay [2], the target named is GST-p300 (p300 CH1 domain, residues 330–420) (Homo sapiens, UniProt Q09472). Put plainly: Fluorescence anisotropy direct titration of GFP-HIF-1α776–826 variants with GST-p300. In kind it is binding. The conditions noted are these: 50 nM GFP-HIF-1α776–826 variant, GST-p300 serial dilution, 25 mM Tris–HCl, 150 mM NaCl, 1 mM DTT, pH 7.4, 27 °C, 1:1 model, ± standard error of fitted value, technical triplicates.
Text: To experimentally compare the predictions, we carried out an in vitro biophysical study of several HIF-1α sequence variants. We assessed predicted hot residues and their interactions with p300 using the NMR structure to visualize the structural basis behind the predictions (See ESI, ^† Fig. S2). These analyses helped refine a first series of alanine variants to prepare. […] HIF-1α776–826 sequence variants were recombinantly prepared based on the predictions to test their binding to the recombinantly prepared p300 (Fig. 2). Given the length of the peptide ([…]), this was considered advantageous as it obviates the need to chemically synthesise, label and purify multiple variants. As the C-TAD domain is unstructured in isolation it was recombinantly expressed as a fusion protein with GFP. The green-fluorescent protein (GFP) tag was used for fluorescence anisotropy (FA) experiments to determine the binding affinity of HIF-1α776–826 C-TAD variants to p300. As the CH1 domain of p300 is a small domain of 11 kDa it was recombinantly expressed as a fusion protein with GST to increase its size and thus the signal to noise in the FA experiments. We established an assay where the interaction between GFP-tagged wt HIF-1α776–826 and GST-tagged p300 was monitored by FA, using the fluorescence of GFP. GST dimerises with single digit nM Kd[61] (and in our hands exists as a dimer in size exclusion chromatography analyses, see ESI, ^† Fig. S15 for protein characterization data), thus two molecules of GFP-HIF-1α could bind to the GST-p300 dimer (Fig. 2a). We make the assumption that each p300 binding site behaves independently and analyse the binding isotherm using a 1 : 1 model.
as §1
7.4 buffer or dialysed into 25 mM Tris, 150 mM NaCl, 1 mM DTT pH 7.4 buffer.
GSTp300 protein was serially diluted in buffer (25 mM Tris-HCl, 150 mM NaCl, 1mM DTT, pH 7.4) and GFP-HIF-1α (50nM final concentration) was added, the plates were read after 0 min, 60 min, 4 h and 24 h, and incubated at room temperature in between. Each experiment was run in triplicate and the fluorescence anisotropy measured using an EnVision 2103 MultiLabel plate reader (Perkin Elmer) with excitation at 480 nm and emission at 535 nm (30 nm bandwidths). The recorded temperature for all measurements was 27°C ± 1°C. In parallel, a control experiment was performed in which no GFP-HIF was added and the volume made up with additional buffer, this blank was deducted from the raw data for each of the three repeats.
The intensity was calculated for each point using eqn (1) and used to calculated anisotropy […]
using eqn (2). From a plot of anisotropy against GST-p300 concentration the minimum and maximum anisotropies were obtained using a logistic sigmoidal fit in OriginPro 8.6. This allowed the conversion to fraction bound (eqn (3)). The data were then fitted using eqn (4) in OriginPro 8.6 to determine the dissociation constant, Kd. […]
5 µl injections and 180 s spacing between injections, for 40 injections. Titrations were performed in 40 mM Na-phosphate, pH 7.5 100 mM NaCl, 1 mM DTT buffer except for GFP- […]

For assay [3], the target named is T2, p300 CH1 domain (residues 330–420) (UniProt Q09472 330-420).
T2 construct: p300 CH1 domain, residues 330–420; The cleavage of GST is said for the anisotropy control; also called p300 with the GST tag cleaved; source: recombinantly expressed as a fusion protein with GST, GST tag cleaved
The assay can be described thus: ITC; 10 μM p300 in the cell, 100 μM GFP-HIF-1α 776–826 variant in the syringe; 37 °C; 25 mM Tris–HCl, 150 mM NaCl, 1 mM DTT, pH 7.4; fixed 1:1 stoichiometry. The conditions noted are these: both partners purified.

The target of assay [4] is GST-tagged p300 CH1 domain (residues 330–420) (UniProt Q09472). Put plainly: fluorescence polarisation; fluorescence anisotropy by the fluorescence of GFP; GFP-HIF-1α 776–826 variants with GST-p300; 25 mM Tris–HCl, 150 mM NaCl, 1 mM DTT, pH 7.4; 1:1 model, each p300 site of the GST dimer taken as independent. A general note: Fluorescence polarisation rises when a labelled molecule tumbles more slowly, as on binding a larger partner.

Assay [5] has as its target T2, p300 CH1 domain (residues 330–420). Put plainly: ITC; peptide in the syringe, p300 in the cell (Fig. 4: 5 μM protein, 60 μM ligand); 40 mM sodium phosphate, pH 7.5, 100 mM NaCl, 1 mM DTT, 35 °C; single-site model, fixed 1:1 stoichiometry. The conditions noted are these: both partners purified. Background: In ITC the heat of successive injections is recorded.

No end group written: not given here.

T2 sequence (Q09472 330-420): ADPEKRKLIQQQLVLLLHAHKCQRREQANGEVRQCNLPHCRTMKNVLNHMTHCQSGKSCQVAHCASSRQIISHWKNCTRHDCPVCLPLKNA
Chain of GST-p300 (p300 CH1 domain, residues 330–420) (Q09472 330-420): as above
T1 sequence (Q09472 330-420): as above

For “HIF-1α L792A: GFP-HIF-1α776–826 C-TAD single alanine variant L792A ({GFP}-SDLACRLLGQSMDESGAPQLTSYDCEVNAPIQGSRNLLQGEELLRALDQVN; cysteine pairing not given here)”, in assay [1], the ΔS was −14.5 ^a cal mol^−1 K^−1 and the ΔH is reported as −13.6 ^a (−13.9, −13.2) kcal mol^−1.
For “D823A: GFP-HIF-1α776–826 C-TAD single alanine variant D823A ({GFP}-SDLACRLLGQSMDESGLPQLTSYDCEVNAPIQGSRNLLQGEELLRALAQVN; cysteine pairing not given here)”, the Kd in assay [2] was found to be 192 ± 17 nM. In assay [1], this molecule had a ΔS of −12.2 cal mol^−1 K^−1 and a ΔH of -13.0 kcal/mol.
Take “E801A: GFP-HIF-1α776–826 C-TAD single alanine variant E801A ({GFP}-SDLACRLLGQSMDESGLPQLTSYDCAVNAPIQGSRNLLQGEELLRALDQVN; cysteine pairing not given here)”: the affinity in assay [2], expressed as Kd, was 227 ± 78 nM. In assay [1], this molecule came in with a ΔS of −9.5 cal mol^−1 K^−1 and a ΔH of -12.2 kcal/mol.
In assay [2], “N803A: GFP-HIF-1α776–826 C-TAD single alanine variant N803A ({GFP}-SDLACRLLGQSMDESGLPQLTSYDCEVAAPIQGSRNLLQGEELLRALDQVN; cysteine pairing not given here)” yielded a Kd of 120 ± 17 nM.

B1: GFP-tagged wt HIF-1α 776–826 C-TAD (domain or fragment, UniProt Q16665 776-826, looked up)
chain: SDLACRLLGQSMDESGLPQLTSYDCEVNAPIQGSRNLLQGEELLRALDQVN
notes: source: recombinantly expressed as a fusion protein with GFP
Consider B1, for which, in assay [3], binding was characterised by a dissociation constant (Kd) of 86 nM and the dH was -17.3 kcal/mol. The same molecule registered a Kd in assay [4] of 55 nM.

B2: GFP-HIF-1α 776–826 D823A (domain or fragment, UniProt Q16665 776-826, looked up)
chain: SDLACRLLGQSMDESGLPQLTSYDCEVNAPIQGSRNLLQGEELLRALAQVN
notes: As m3 with the stated change; also called HIF-1α D823A; source: recombinantly expressed as a fusion protein with GFP
B2: in assay [3], the Kd stood at 369 nM and the dH was -13 kcal/mol. The same molecule displayed a Kd in assay [4] of 192 nM.

B3: GFP-HIF-1α 776–826 E801A (domain or fragment, UniProt Q16665 776-826, looked up)
chain: SDLACRLLGQSMDESGLPQLTSYDCAVNAPIQGSRNLLQGEELLRALDQVN
notes: As m3 with the stated change; also called HIF-1α E801A; source: recombinantly expressed as a fusion protein with GFP
In assay [3], B3 returned a Kd of 359 nM and a dH of -12.2 kcal/mol. The molecule also registered a Kd in assay [4] of 227 nM.

B4: GFP-HIF-1α 776–826 L792A (domain or fragment, UniProt Q16665 776-826, looked up)
chain: SDLACRLLGQSMDESGAPQLTSYDCEVNAPIQGSRNLLQGEELLRALDQVN
notes: As m3 with the stated change; measured by ITC only; also called HIF-1α L792A; source: recombinantly expressed as a fusion protein with GFP
On to B4, for which, in assay [3], the Kd came to 386 nM and the dH was -13.6 kcal/mol.

B5: HIF-1α 776–826, chemically synthesized peptide (peptide, UniProt Q16665 776-826, looked up)
peptide: Ac-SDLACRLLGQSMDESGLPQLTSYDCEVNAPIQGSRNLLQGEELLRALDQVN-NH2
modifications: cysteine pairing not given here
notes: source: synthetic peptide (chemical synthesis, see ESI)
As to B5, in assay [5], the affinity, expressed as Kd, was 52.2 nM and the dH was -22.9 kcal/mol.

B6: CITIF, HIF-1α-CITED2 hybrid sequence, chemically synthesized peptide (peptide)
chain: Ac-DEEVLMSLVIEMGLDRIKELPQLTSYDCEVNAPIQGSRNLLQGEELLRALDQVN-NH2
Turning to B6, in assay [5], the dH was -22.5 kcal/mol.

B7: HIF-1α 786–826, chemically synthesized peptide (peptide, UniProt Q16665 786-826, looked up)
peptide: Ac-SMDESGLPQLTSYDCEVNAPIQGSRNLLQGEELLRALDQVN-NH2
notes: as for B5
In the case of B7, the dH in assay [5] was -25.8 kcal/mol.
